The series is described as follows: yeast display, Sf9 membrane polyspecificity reagent, FACS + sequencing; frameworks hold sequencing errors. In short, it runs like this: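 Galactose-induced (36–48 hours) yeast carrying a synthetic nanobody display library were exposed to 10% biotinylated, detergent-solubilized Sf9 membrane reagent at 4 °C for 1 hour. FACS followed streptavidin microbead enrichment, using low and high (top ~1%) gates for expression (anti-HA) and reagent binding (streptavidin). Colony PCR, MiSeq 2 × 250 sequencing and CDR-length filtering followed. Labels for polyreactivity reflect the gate of origin.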
On to “QVQLVESCGGLVQAGGSLRLSCAASGLTFLAYDMGWYRQAPGKEREFVAAITGGGSTHYADSVKGRFTISRDNAKTTVYLQMNSLKTEDTAVYYCNADVYVYSVTSHYPSYRLDYWGQGTQVTVSS”, for which the “polyreactivity (PSR sort gate)” value is “high polyreactivity”. On to “QVQLVESCGGLVQAGGSLRLSCAASGRTFSLYTMGWYRQAPGKERELVATIRSRGGSTYYADSVKGRFTISRDNAKNTFYLQMNSLIPEDTAVYYCATVLRGPFLGWHGGPMYHWGQGTQVTVSS”, for which the “polyreactivity (PSR sort gate)” value is “low polyreactivity”. Next, “QVQLVESCGGLVQAGGSLRLSCAASGRTIASYAMGWYRQAPGKERELVAAITSGGSTYYADSVKGRFTISRDNAMNTVYLQMNSLKPEDTAVYYCARKHAIWRGYDYWGQGTQVTVSS”: “low polyreactivity”; “QVQLVESCGGLVQAGGSLRLSCAASGSIFADYAMGWYRQAPGKEREFVAAITRSGTSTYYADSVKGRFTISRDNAKNTVYLQMTSLKPVDTPVYYCAKTEVLLYLYTLDYWGQGTQVTVSS”: “low polyreactivity”. In the case of “QVQLVESCGGLVQAGGSLRLSCAASGSIFPYYTMGWYRQAPWKERELVAAISGSGGSTYYADSVKGRFTISRDNAKNTVYLQMNSLKAEYTAVYYCAAYRRTWFDYWGQGTQVTVSS” it was “high polyreactivity”; in that of “QVQLVESCGGLVQAGGSLRLSCAASGSIFVGNAMGWYRQAPGKERELVAAIDASGGNTYYADSVKGRFTISRDNAKNTVYLQMNSLKPEDTAVYYCNKYGYWWWGTRESDYWGQGTQVTVSS”, “high polyreactivity”; in that of “QVQLVESCGGLVQAGGSLRLSCAASGSTFAGYVMGWYRQAPGKERQFVAAISTSGGRTYYADSVKGRFTISRDNAKNTVYLQMNSLKPEDTAVYYCAARSVTYGGLGLYGYWGQGTQVTVSS”, “high polyreactivity”. Next, “QVQLVESCGGLVQAGGSLRLSCAASGSTFASYAMGWYRQAPGKEREFVAAISRSGGSTYYADSVKGRFTISRDNAKNTVYLQMNSLKPEDTAVYYCAARSPSADEYYYWGQGTQVTVSS”: “low polyreactivity”; “QVQLVESCGGLVQAGGSLRLSCAASGSTFEEYAMGWYRQAPGKERELVASIRWSGGRTYYADSVKGRFTISRDNAKNTVYLQMNRLKPEDTAVYYCNKDYYITLHESEGKGGEMDYWGQGTQVTVSS”: “low polyreactivity”; “QVQLVESCGGLVQAGGSLRLSCAASGSTFINYAMGWYRQAPGKERELVAAYAYSVKGRFTISRDNAKITVYLQMKSLKPEDTAVYYCNAVTGDWGQGTQVTVSS”: “low polyreactivity”. On to “QVQLVESCGGLVQAGGSLRLSCSASGSTFVINAMGWYRQAPGKERELVAAISSGDNTNYADSVKGRFTISRDNAKNTVYLQMNSLKPEETAVYYCAALPAYLDYGARRSMDYWGQGTQVTVSS”, for which the “polyreactivity (PSR sort gate)” value is given as “low polyreactivity”. “QVQLVESCGRLVQAGGSLRISCAASGYTFSYYAMGWYRQAHGKERELVAAINYSGGRTYYADSVKGRFTISRDNAKNNVYLQMNSLKPEDTAVYYCSAYTRNGEYDYWGQGTQVTVSS”: the “polyreactivity (PSR sort gate)” value is “high polyreactivity”. Next, “QVQLVESCRGLVQAGGSLRLICAASGLTFRYYSMGWYRQAPGKERELVASISWCGASTYYADSVKGRFTISRDNAKNTVYLQMISLKPEDTAVYYCNAGYSGSYDYWGQGTQVTVSS”: “high polyreactivity”; “QVQLVESDGGLVQAGGSLRLSCAASGIIFGYYVMGWYRPAPGKERELVASITSGGSTNYADSVKGRFTISRDNAKNTVYFQMNSLKPEDTAVYYCAAEERTDTIPGWRYPHDYWGQGTQVTVSS”: “low polyreactivity”; “QVQLVESGACLVQAGGRLRLSCAASGRICGLNAMVWYRQAPGKERELVASITYSGGSTYYADSVKGRFTISRDNAKNTVYLQMNSLKPEYTADYYCAADSWYYWYSTYDYWGQGTQVTVSS”: “high polyreactivity”. In the case of “QVQLVESGACLVQAGGSLRLSCAASGGIFYYYAMGWYRQAPGKERELVAVISPGGGRTYYADSVKGRFTISRDIAKNTVYLQKNSLKPEDTAVYYCARDSPGDGGREVARGSYNYWGQGTQVTVSS” it was “high polyreactivity”; in that of “QVQLVESGACLVQAGGSLRLSCAASGITLVNYAMGWYRQAPGKERELVAAISASGGSTYYADSVKGRFTISRDNAKNNVYLQMNSLKPEDTAVYYCAAEEEEFIYDYWGQGTQVTVSS”, “high polyreactivity”; in that of “QVQLVESGAGIVQAGGSLRLSCAASGLTFTYYAMGWYRQAPGKERELVAAISRSGTGTYYADSVKGRFTISRDNAKNTVYLQMNSLTAEDTAVYYCNAVVRTYGYDYWGQGTQVTVSS”, “high polyreactivity”.

In the case of “QVQLVESGAGIVQAGGSLRLSCAASGRIFSDYTMGWYRQAPGKERELVAAIDWSGGNTYYADSVKGRFTISRDNAKNTVYLQMNSLKPEDTAVYYCNADWTYPSAEREYWGQGTQVTVSS”, the “polyreactivity (PSR sort gate)” value is reported as “low polyreactivity”. “QVQLVESGAGLGQAGGSLRLSCAASGSNDIYAMGWNRQEPGKEREFVAAISYSSGSTYYADSVKGRFTISRDNAKNTVFLQMNSLIPVDTAVYYCAAVWQAGVYRYYYWGQGTQVTVSS”: the “polyreactivity (PSR sort gate)” value is recorded as “high polyreactivity”. In the case of “QVQLVESGAGLVHAGGSLRLSCAASGRIFGINAMGWYRQAPGKERELVAAINWSGGSTYYADSVKGRFTISRDNAKNTVYLQMNSVKPEDTAVYYCAAQKYKRVGYWGQGTQVTVSS” it was “high polyreactivity”. In the case of “QVQLVESGAGLVHAGGSLRLSCAASGRTFSSNAMGGYRQAPGKERELVAGITWGGGSTYYADSVKGRFTISRDNAKNTVYLQMYSLKPEDTAVYYCAKSAGKRGYQVDYWVQGTQVTVSS” it was “high polyreactivity”; in that of “QVQLVESGAGLVKAGGSLRLSCAASGIIFGNYAMGLYRQAPGKEREFVAAISGSGDSTYYADSVKGRFTISRDNAKNTVYLQMNSLKPEVTAVYYCAADWTLVYYHEDYWGQGTQVTVSS”, “high polyreactivity”.

In the case of “QVQLVESGAGLVQAAGSLRLSCAASVSTFYTYAMGRYRQAPGKERELVADIRWRGGSTNYADSVKGRFTISRDNAKNTVYLQMNSLTSEDTAVYYCALRYYYYGASYYYWGHGTQVTVSS”, the “polyreactivity (PSR sort gate)” value is reported as “high polyreactivity”. Next, “QVQLVESGAGLVQAGASLRLSCAASGRIFPWNAMGWSRQEPGKERELVAAISFSAGRTYYADSVKGRFTISRDNAKNTVYLQMNSLKPEDTAVYYCNARIGSRWVWTGIICYEYWGKGTQVTVSS”: “low polyreactivity”; “QVQLVESGAGLVQAGGSLLLSCAASAFIFTPYTKGWYRQAPGKETELVAAITDGSSTYYADSVKRRFTISRDNAQNTVYVQMNSLKPEDTAVYYCNADTLTTTRRFNPYDYRGQGTQVTVSS”: “low polyreactivity”; “QVQLVESGAGLVQAGGSLRISCAASGIIFTYYPMGWYRQAPGKERELVASISSSGTSTYYADSVKGRFTISRDNAKNTVYLQLNSLKPEDTAVYYCAKSYWGDNSGFPGTPYDYWGQGTQVTVSS”: “low polyreactivity”.

For the sequence “QVQLVESGAGLVQAGGSLRISCAASGRIFHYALGWYRQAPGKERELVAGISKRGGSTYYADSVKGRFTISRDNAKNTVYLQMNSLKPEDTAVYYCAAGRAYDGTKHDYWGQGTQVTVSS”, the “polyreactivity (PSR sort gate)” value is reported as “high polyreactivity”. Next, “QVQLVESGAGLVQAGGSLRISCAASGRTFGLNDMAWYRPAPGKERELVAAITWSDDDTYYADSVKGRFTISRDNAKNTVYLQMNSLKPEDTAVYYCAKSRYDYTKTECGYWGQGTEVTVSS”: “low polyreactivity”. Take “QVQLVESGAGLVQAGGSLRLCCAASGFIFRVYAMGLYRQAPGKERELVAAISDSGGSTTYADSVKGRFTISRDNAKNTVYLQMNSLKPEDTAVYYCAAKLPRSRYRGVDYWGQGTQVTVSS”: the “polyreactivity (PSR sort gate)” value was “low polyreactivity”.

For the sequence “QVQLVESGAGLVQAGGSLRLSCAASGFAFYLYAMGWYRQAPGIERELVAAISSRGGNTYYADTVKGRFTISRDYAKNTVYLPMISLKPEDNAVYYCAAEFWNWYGDYDYWGQGTQVTVSS”, the “polyreactivity (PSR sort gate)” value is listed as “high polyreactivity”. Next, “QVQLVESGAGLVQAGGSLRLSCAASGFIFAGNAMGWYIQAPGKERELVAAITRRGGSTHYADSVKGRFTISRDKAKNTVYLQMNSLKPEDTAVYYCNAAVQPPLSDYWGQGTQVTVSS”: “low polyreactivity”; “QVQLVESGAGLVQAGGSLRLSCAASGFTFYRYAMGWYRQAPGKEREFLAAITASGGSTNYADSVKGRFTISRDNAKNTVYLQMNSLKPEDTAVYYCAARQSRDFRYRGFYYWGQGTQVTVSS”: “high polyreactivity”. “QVQLVESGAGLVQAGGSLRLSCAASGIILRYYALGWYRQAPGKERELVAAISSGGRTYYADSVKGRFTISRDNAKNPVNLLMNSLTPEDTEVYSCAADDTRGREEYDYWGQGTQVTGSS”: the “polyreactivity (PSR sort gate)” value is reported as “high polyreactivity”. Next, “QVQLVESGAGLVQAGGSLRLSCAASGITFGRYTMGWYRQAPGKERELVAAITNGDITYYADSVKGRFTISRDNAKNTVYLQMNSLKPEDTAVYYCAADRSFWYDYWGQGTQVTVSS”: “high polyreactivity”. As for “QVQLVESGAGLVQAGGSLRLSCAASGNIFVEYAKGWYRQAPGKERELVAAITNTGGRTHYADSVKGRFTISRDNAKNTVYFQMNSLKPEDTAVYDCASRRTGYYGTRDYWGQVTQVTVSS”, the “polyreactivity (PSR sort gate)” value is given as “high polyreactivity”. For “QVQLVESGAGLVQAGGSLRLSCAASGRIFAYNAMGWYRQAPGKERELVAGITIRGGRTYYADSVKGRFTISRYNAKNTVYLQMNSLKPEDTAVYYCNARGWYEYGWGQGTQVTVSS”, the “polyreactivity (PSR sort gate)” value is “high polyreactivity”. On to “QVQLVESGAGLVQAGGSLRLSCAASGRIFPGYVMGWYRQAHGKERELVAAITRGGSTYYADSVKGRFTISRDNAKNTVYLQMNSLKPDDTAVYYCAAKHSHIHYNYWGQGTQVTVSS”, for which the “polyreactivity (PSR sort gate)” value is reported as “low polyreactivity”. Next, “QVQLVESGAGLVQAGGSLRLSCAASGRILSHYAMGWYRQAPGKERELVATINSGGSTYYADSVKGRFTISRDNAKNTVYLQMNSLKPEDTAVYYCAVDYAVSYAGWVLRYDYWGQATQVTVSS”: “low polyreactivity”. Next, “QVQLVESGAGLVQAGGSLRLSCAASGRNFGTYAMGWYTQAPGTERELVAGINGSGGSTYYADSVKGRFTISRDNAKNTVFLQMNSLKPEDTAVYYCAKYNWYRAWRYGYWGQGTQVTVSS”: “high polyreactivity”. In the case of “QVQLVESGAGLVQAGGSLRLSCAASGRTFHRYAMGWYRQAPGKERELVATINRNGGSTYYADSVKGRFTISRDNAKNTVYLQMNSLKPDDTAVYYCNKRVYTGYKYSESFDRYYYWGQGTQVTVSS” it was “high polyreactivity”.

(Values after the nanobody polyreactivity screen of Harvey et al. (2022).)
